Assay results reported in patent US20070128627A1 (US Dept. of Health and Human Services, published 2007).

Experiments:
[1] = target: T1, GAL/STAMP(N834) (human); experiment: mammalian two-hybrid ±1 µM Dex (FIG. 6B)
T1 construct: domain: GAL-DBD; Mammalian two-hybrid construct; also called GAL/N834

[2] = target: T2, GAL/STAMP(834C) (human, UniProt P04386 1-147 (Saccharomyces cerevisiae entry)); experiment: mammalian two-hybrid (data not shown)
T2 construct: domain: GAL-DBD; Mammalian two-hybrid construct; also called GAL fused to STAMP834C

[3] = target: T3, STAMP amino terminal fragment (N623), in vitro translated (human, UniProt Q6EMB2 5-627, [35S]methionine labeled); experiment: GST pulldown, autoradiography (FIG. 7A)
T3 sequence: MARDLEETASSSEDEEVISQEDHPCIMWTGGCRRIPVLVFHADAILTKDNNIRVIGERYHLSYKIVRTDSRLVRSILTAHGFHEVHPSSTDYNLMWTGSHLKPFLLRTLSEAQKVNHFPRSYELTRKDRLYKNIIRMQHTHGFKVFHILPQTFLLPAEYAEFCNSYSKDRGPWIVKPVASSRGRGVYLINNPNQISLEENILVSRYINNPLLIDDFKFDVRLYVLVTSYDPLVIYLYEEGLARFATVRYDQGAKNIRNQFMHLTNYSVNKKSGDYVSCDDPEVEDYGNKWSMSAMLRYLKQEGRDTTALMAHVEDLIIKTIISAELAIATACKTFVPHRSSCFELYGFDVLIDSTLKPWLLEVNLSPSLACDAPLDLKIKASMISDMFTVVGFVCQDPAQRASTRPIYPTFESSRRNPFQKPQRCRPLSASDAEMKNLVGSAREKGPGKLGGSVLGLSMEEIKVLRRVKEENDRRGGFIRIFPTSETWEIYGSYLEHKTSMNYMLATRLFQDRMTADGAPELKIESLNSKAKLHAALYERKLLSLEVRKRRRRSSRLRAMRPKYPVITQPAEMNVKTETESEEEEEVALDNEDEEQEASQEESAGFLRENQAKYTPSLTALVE

[4] = target: T4, STAMP C-terminal fragment (834C), in vitro translated (human, UniProt Q6EMB2 838-1281, [35S]methionine labeled); experiment: GST pulldown, autoradiography (FIG. 7A)
T4 sequence: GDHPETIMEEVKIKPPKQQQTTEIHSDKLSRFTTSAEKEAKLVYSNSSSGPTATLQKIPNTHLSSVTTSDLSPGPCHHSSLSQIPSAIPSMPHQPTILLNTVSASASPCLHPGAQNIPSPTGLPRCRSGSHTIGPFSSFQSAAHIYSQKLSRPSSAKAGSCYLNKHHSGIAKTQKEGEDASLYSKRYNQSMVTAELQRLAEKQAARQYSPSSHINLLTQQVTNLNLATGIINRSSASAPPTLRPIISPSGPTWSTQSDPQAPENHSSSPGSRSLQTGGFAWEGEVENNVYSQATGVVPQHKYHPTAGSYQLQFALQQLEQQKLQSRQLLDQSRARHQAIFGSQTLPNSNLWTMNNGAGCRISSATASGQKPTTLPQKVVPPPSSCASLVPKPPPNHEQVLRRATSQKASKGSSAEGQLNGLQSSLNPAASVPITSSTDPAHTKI

[5] = target: transcription intermediary factor-2 (TIF2), full length (human, UniProt Q15596 1-1464); experiment: cell-based or functional assay
[6] = target: T5, GAL/STAMP(623-834) (human); experiment: mammalian two-hybrid in CV-1 cells
T5 construct: domain: GAL-DBD; Expressed in CV-1 cells for the mammalian two-hybrid assay; also called Gal/6-6CL1

B1: VP16/GR (receptor)
chain: MDSKESLAPPGRDEVPGSLLGQGRGSVMDFYKSLRGGATVKVSASSPSVAAASQADSKQQRILLDFSKGSTSNVQQRQQQQQQQQQQQQQQQQQQQPDLSKAVSLSMGLYMGETETKVMGNDLGYPQQGQLGLSSGETDFRLLEESIANLNRSTSVPENPKSSTSATGCATPTEKEFPKTHSDASSEQQNRKSQTGTNGGSVKLYPTDQSTFDLLKDLEFSAGSPSKDTNESPWRSDLLIDENLLSPLAGEDDPFLLEGNTNEDCKPLILPDTKPKIKDTGDTILSSPSSVALPQVKTEKDDFIELCTPGVIKQEKLGPVYCQASFSGTNIIGNKMSAISVHGVSTSGGQMYHYDMNTASLSQQQDQKPVFNVIPPIPVGSENWNRCQGSGEDSLTSLGALNFPGRSVFSNGYSSPGMRPDVSSPPSSSSAATGPPPKLCLVCSDEASGCHYGVLTCGSCKVFFKRAVEGQHNYLCAGRNDCIIDKIRRKNCPACRYRKCLQAGMNLEARKTKKKIKGIQQATAGVSQDTSENPNKTIVPAALPQLTPTLVSLLEVIEPEVLYAGYDSSVPDSAWRIMTTLNMLGGRQVIAAVKWAKAILGLRNLHLDDQMTLLQYSWMFLMAFALGWRSYRQSSGNLLCFAPDLIINEQRMSLPCMYDQCKHMLFVSSELQRLQVSYEEYLCMKTLLLLSSVPKEGLKSQELFDEIRMTYIKELGKAIVKREGNSSQNWQRFYQLTKLLDSMHEVVENLLTYCFQTFLDKTMSIEFPEMLAEIITNQIPKYSNGNIKKLLFHQK
notes: Assayed with and without 1 µM Dex
Does B1 bind [1]?
Result: no binding

B2: GR N-terminal half (N523) (receptor, UniProt P06536 1-523, looked up, not shown: large carriers)
chain: MDSKESLAPPGRDEVPGSLLGQGRGSVMDFYKSLRGGATVKVSASSPSVAAASQADSKQQRILLDFSKGSTSNVQQRQQQQQQQQQQQQQQQQQQQPDLSKAVSLSMGLYMGETETKVMGNDLGYPQQGQLGLSSGETDFRLLEESIANLNRSTSVPENPKSSTSATGCATPTEKEFPKTHSDASSEQQNRKSQTGTNGGSVKLYPTDQSTFDLLKDLEFSAGSPSKDTNESPWRSDLLIDENLLSPLAGEDDPFLLEGNTNEDCKPLILPDTKPKIKDTGDTILSSPSSVALPQVKTEKDDFIELCTPGVIKQEKLGPVYCQASFSGTNIIGNKMSAISVHGVSTSGGQMYHYDMNTASLSQQQDQKPVFNVIPPIPVGSENWNRCQGSGEDSLTSLGALNFPGRSVFSNGYSSPGMRPDVSSPPSSSSAATGPPPKLCLVCSDEASGCHYGVLTCGSCKVFFKRAVEGQHNYLCAGRNDCIIDKIRRKNCPACRYRKCLQAGMNLEARKTKKKIKGIQQAT
notes: domain: N-terminal half (N523)
Does B2 bind [2]?
Result: no binding

B3: GST/TIF2.4 (other)
chain: ERADGQSRLHDSKGQTKLLQLLTTKSDQMEPSPLASSLSDTNKDSTGSLPGSGSTHGTSLKEKHKILHRLLQDSSSPVDLAKLTAEATGKDLSQESSSTAPGSEVTIKQEPVSPKKKENALLRYLLDKDDTKDIGLPEITPKLERLDSKTDPASNTKLIAMKTEKEEMSFEPGDQPGSELDNLEEILDDLQNSQLPQLFPDTRPGAPAGSVDKQAIINDLMQLTAENSPVTPVGAQKTALRISQSTFNNPRPGQLGRLLPNQNLPLDITLQSPTGAGPFPPIRNSSPYSVIPQPGMMGNQGMIGNQGNLGNSSTGMIGNSASRPTMPSGEWAPQSSAVRVTCAATTSAMNRPVQGGMIRNPAASIPMRPSSQPGQRQTLQSQVMNIG
notes: Bacterially expressed, immobilized on glutathione-Sepharose beads; The text gives no limits for TIF2.4, so the whole TIF2 entry is named; not shown: glutathione S-transferase (GST) of a pGEX plasmid
Does B3 bind [3]?
Result: no binding

Does B3 bind [4]?
Result: no binding

B4: full length STAMP (SRC-1 and TIF2 Associated Modulatory Protein) (other)
chain: MARDLEETASSSEDEEVISQEDHPCIMWTGGCRRIPVLVFHADAILTKDNNIRVIGERYHLSYKIVRTDSRLVRSILTAHGFHEVHPSSTDYNLMWTGSHLKPFLLRTLSEAQKVNHFPRSYELTRKDRLYKNIIRMQHTHGFKVFHILPQTFLLPAEYAEFCNSYSKDRGPWIVKPVASSRGRGVYLINNPNQISLEENILVSRYINNPLLIDDFKFDVRLYVLVTSYDPLVIYLYEEGLARFATVRYDQGAKNIRNQFMHLTNYSVNKKSGDYVSCDDPEVEDYGNKWSMSAMLRYLKQEGRDTTALMAHVEDLIIKTIISAELAIATACKTFVPHRSSCFELYGFDVLIDSTLKPWLLEVNLSPSLACDAPLDLKIKASMISDMFTVVGFVCQDPAQRASTRPIYPTFESSRRNPFQKPQRCRPLSASDAEMKNLVGSAREKGPGKLGGSVLGLSMEEIKVLRRVKEENDRRGGFIRIFPTSETWEIYGSYLEHKTSMNYMLATRLFQDRMTADGAPELKIESLNSKAKLHAALYERKLLSLEVRKRRRRSSRLRAMRPKYPVITQPAEMNVKTETESEEEEEVALDNEDEEQEASQEESAGFLRENQAKYTPSLTALVENTPKENSMKVREWNNKGGHCCKLETQELEPKFNLMQILQDNGNLSKMQARIAFSAYLQHVQIRLMKDSGGQTFSASWAAKEDEQMELVVRFLKRASNNLQHSLRMVLPSRRLALLERRRILAHQLGDFIIVYNKETEQMAEKKSKKKVEEEEEDGVNMENFQEFIRQASEAELEEVLTFYTQKNKSASVFLGTHSKISKNNNNYSDSGAKGDHPETIMEEVKIKPPKQQQTTEIHSDKLSRFTTSAEKEAKLVYSNSSSGPTATLQKIPNTHLSSVTTSDLSPGPCHHSSLSQIPSAIPSMPHQPTILLNTVSASASPCLHPGAQNIPSPTGLPRCRSGSHTIGPFSSFQSAAHIYSQKLSRPSSAKAGSCYLNKHHSGIAKTQKEGEDASLYSKRYNQSMVTAELQRLAEKQAARQYSPSSHINLLTQQVTNLNLATGIINRSSASAPPTLRPIISPSGPTWSTQSDPQAPENHSSSPGSRSLQTGGFAWEGEVENNVYSQATGVVPQHKYHPTAGSYQLQFALQQLEQQKLQSRQLLDQSRARHQAIFGSQTLPNSNLWTMNNGAGCRISSATASGQKPTTLPQKVVPPPSSCASLVPKPPPNHEQVLRRATSQKASKGSSAEGQLNGLQSSLNPAASVPITSSTDPAHTKI
Which results are given for B4?
fold repression by Dex of the PMA-induced AP-1/Luc reporter in U2OS.rGR cells (STAMP added, no TIF2 added) [5]: 16 fold; fold repression by Dex of the PMA-induced AP-1/Luc reporter in U2OS.rGR cells (STAMP plus TIF2 added) [5]: ~31 fold

B5: VP16/TIF2(1140C) (other)
chain: QAQMAQGSYSPMQDPNFHTMGQRPSYATLRMQPRPGLRPTGLVQNQPNQLRLQLQHRLQAQQNRQPLMNQISNVSNVNLTLRPGVPTQAPINAQMLAQRQREILNQHLRQRQMHQQQQVQQRTLMMRGQGLNMTPSMVAPSGMPATMSNPRIPQANAQQFPFPPNYGISQQPDPGFTGATTPQSPLMSPRMAHTQSPMMQQSQANPAYQAPSDINGWAQGNMGGNSMFSQQSPPHFGQQANTSMYSNNMNINVSMATNTGGMSSMNQMTGQISMTSVTSVPTSGLSSMGPEQVNDPALRGGNLFPNQLPGMDMIKQEGDTTRKYC
Does B5 bind [6]?
Result: no binding

B6: GR C-terminal half (407C) (receptor, UniProt P06536 407-795, looked up, not shown: large carriers)
chain: SVFSNGYSSPGMRPDVSSPPSSSSAATGPPPKLCLVCSDEASGCHYGVLTCGSCKVFFKRAVEGQHNYLCAGRNDCIIDKIRRKNCPACRYRKCLQAGMNLEARKTKKKIKGIQQATAGVSQDTSENPNKTIVPAALPQLTPTLVSLLEVIEPEVLYAGYDSSVPDSAWRIMTTLNMLGGRQVIAAVKWAKAILGLRNLHLDDQMTLLQYSWMFLMAFALGWRSYRQSSGNLLCFAPDLIINEQRMSLPCMYDQCKHMLFVSSELQRLQVSYEEYLCMKTLLLLSSVPKEGLKSQELFDEIRMTYIKELGKAIVKREGNSSQNWQRFYQLTKLLDSMHEVVENLLTYCFQTFLDKTMSIEFPEMLAEIITNQIPKYSNGNIKKLLFHQK
notes: also called GR407C
Does B6 bind [2]?
Result: no binding
